Experimental data taken from patent publication US8022178B2, “Modified self-assembling peptides” (Massachusetts Institute of Technology, priority 2006, dated 2011).
Entries after “also recorded” stand apart in the source; their conditions may differ.

Experiments:
[1] = pI and charge of the self-assembling peptide; format: physicochemical
Protocol: (§1) A comparison of the pH dependent property of 1% Ac(RADA)4GGFHRRIKA CONH2 (SEQ ID NO. 6) solution (Code: FHR), self assembling peptide sequence was compared with the heparin-binding motif. FIG. 12 depicts the isoelectric plot and corresponding rheological data when 0.1 N NaOH solution is added to FHR solution to adjust pH. The net charge of the peptide molecule is kept ≧2 when pH<10. Until at point of pH 5.7, the solution keeps viscous state. This movement of pH point where the peptide solution become gel is controlled by the charge induced by the additional motif to the self-assembling peptide. The induced charge prevents the peptide to aggregate to form the gel. Thus, the cell and the peptide solution can be mixed near neutral pH. After complete mixing, the gel formation can be made by adding salt containing solution (e.g., a solution containing a gellation agent or an iso-osmotic solute).
FIG. 18 depicts the isoelectric plot and Rheological data of PFS 1% solution when 0.1 N NaOH solution is added. 1% Ac(RADA)4GGSKPPGTSS-CONH2 solution (Code: SKP, peptide sequence: SEQ ID NO. 7) is a hydrogel composed of peptides with a self-assembling sequence and positively-charged functional motif. Although the pI value of the peptide is 9.74 and it keeps positive charge at near pH 7 range, the gel is formed at the point of pH 4.5. This is because the charge of the molecule around pH 7 range is +1 and smaller than the charge of Ac(RADA)4GGFHRRIKA CONH2 (FHR) (bigger than 3). The charge of the whole peptide should be larger than 2 when the cell is mixed. This pH should be somewhere in 6-8 in order to minimize the damage to the cells. As this sequence is heparin-binding motif, the fiber can attach to the heparin molecule which is abundant at cell surface. This heparin-binding motif provides a specific anchor to the cell. As described in Example 1, this binding synergistically works with the other binding motif (e.g., RGD) to induce biological stimuli for cell proliferation and differentiation. This effect is not limited to the sequences previously describe, but the other motifs, including -XBBXBX- and -XBBBXXBX- sequences. […]

[2] = system: HUVEC (human umbilical vein endothelial cells); assay: HUVEC cultured 2-dimensionally on hydrogels: cell attachment and morphology; format: cell-based; design: key to Capillary like morphology: weak: +; medium: ++; strong: +++; very strong: ++++; details: HUVEC cultured on hydrogels
Protocol: The effect of functional modified peptide matrix to HUVEC (human umbilical vein endothelial cells) was evaluated by culturing cells 2-dimensionally on the gel.
The peptide solutions shown in Table 19 were loaded in the culture inserts (10 mm diameter, Millicell-CM, Millipore) and gels were formed using cell culture medium (EGM-2-MV, Camblex). Collagen-1 and Matrigel were used as control matrices. HUVEC (human umbilical vein endothelial cells) were plated at 8×10^4 cells on the inserts and cultured up to 7 Days.

[3] = Isoelectric plot and rheological data when 0.1 N NaOH is added (pH of gel formation); format: physicochemical; details: 1% solution, 0.1 N NaOH solution added
From the text: At the point of pH 3.6, the viscous solution become gel and has a higher G′ (stiffness), G″ (viscosity) value. When the pH is increased, the gel breaks into small pieces and it becomes a solution with precipitated peptides. At lower pH, the peptide forms fibers and the fibers make the solution viscous. When the pH becomes higher, and approaches the pI value, the peptide fibers lose their charge and aggregate to form gel. The same gel formation happens when the peptide charge is screened by salts in a salt-containing solution (e.g., a solution containing a gellation agent or an iso-osmotic solute). Once the gel is formed, the fiber structure is broken into pieces to form a precipitate particle.
as §1
FIG. 18 depicts the isoelectric plot and Rheological data of PFS 1% solution when 0.1 N NaOH solution is added. 1% Ac(RADA)4GGSKPPGTSS-CONH2 solution (Code: SKP, peptide sequence: SEQ ID NO. 7) is a hydrogel composed of peptides with a self-assembling sequence and positively-charged functional motif. Although the pI value of the peptide is 9.74 and it keeps positive charge at near pH 7 range, the gel is formed at the point of pH 4.5. […]

[4] = system: HUVEC (human umbilical vein endothelial cells); assay: HUVEC culture on bFGF loaded peptide matrix; format: cell-based; details: Day 3; bFGF loaded matrix compared to negative and positive control; FIG. 21; listed as RAD-2P
Protocol: (§2) The effect of protein retention and delivery using the self-assembling peptide were studied (Table 11). bFGF was used as a model protein. The retention of bFGF in different peptide matrix in different charge condition was measured by ELISA after washing by PBS. After washing out unbound bFGF, the effect of protein retention to self-assembling peptide matrix were evaluated the using cell culturing of HUVEC (human umbilical vein endothelial cells).
The peptide solutions provided in Table 12 were loaded in the culture inserts (10 mm diameter, Millicell-CM, Millipore) and gels were formed using PBS. After gelation, bFGF solution in PBS was added inside and outside and plated for overnight. bFGF was loaded at 175 ng/insert. After loading bFGF, the PBS inside and outside the inserts were exchanged three times (2 hours, 9 hours and 12 hours) to remove unbound bFGF (Washing). […]
Cell culturing using cell culture medium (EGM-2-MV) was used without attached growth factor on peptide matrix as negative control. […] The bFGF concentration in washing buffer (PBS) and cell culture medium (EGM-2-MV) was measured using ELISA. […] Growth factor retention rate was calculated by accumulating the amount of measured bFGF. […]

[5] = molecular target: bFGF (Homo sapiens, UniProt P09038); assay: bFGF retention in peptide matrix (ELISA); details: bFGF 175 ng/insert loaded after gelation; during PBS washing and culturing; FIG. 19
bFGF, sequence (P09038 143-288, species assumed): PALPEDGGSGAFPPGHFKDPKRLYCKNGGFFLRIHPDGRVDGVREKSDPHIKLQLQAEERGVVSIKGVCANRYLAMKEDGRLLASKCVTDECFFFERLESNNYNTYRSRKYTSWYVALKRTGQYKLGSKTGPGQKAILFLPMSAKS
Protocol: as §2
The peptide solutions provided in Table 12 were loaded in the culture inserts (10 mm diameter, Millicell-CM, Millipore) and gels were formed using PBS. After gelation, bFGF solution in PBS was added inside and outside and plated for overnight. bFGF was loaded at 175 ng/insert. After loading bFGF, the PBS inside and outside the inserts were exchanged three times (2 hours, 9 hours and 12 hours) to remove unbound bFGF (Washing). After the washing, the PBS was exchanged to the cell culture medium (EGM-2-MV, Camblex) without attached growth factor (bFGF, VEGF and EGF) and placed more than a day (such that the fluid contained in the gel is exchanged from PBS to cell culture medium), then HUVEC (human umbilical vein endothelial cells) were plated at 7.5×10^4 cells on the inserts and cultured for three days.
Cell culturing using cell culture medium (EGM-2-MV) was used without attached growth factor on peptide matrix as negative control. Cell culturing using cell culture medium (EGM-2-MV) was used with attached growth factor on peptide matrix without loading growth factor as positive control. The bFGF concentration in washing buffer (PBS) and cell culture medium (EGM-2-MV) was measured using ELISA. The washing buffer and cell culture medium were exchanged at each measurement period (2 hours, 9 hours and 12 hours for washing, and at the cell seeding (D0), Day 1 (D 1), Day 2 (D2) and Day 3 (D3)). Growth factor retention rate was calculated by accumulating the amount of measured bFGF.

## Ac(RADA)4-CONH2
[1]
  charge: neutral
  pI: 6.1
[2]
  Cell attachment: + (+: Weak(<20%))
[3]
  pH at which the viscous peptide solution becomes gel: 3.6
[4]
  cell attachment and cell spread: superior; also recorded: dominant effect
[5]
  bFGF (growth factor) retention rate: high in the order of KFQ-2P, FHR-2P, RAD-2P then DGR-2P

## Ac(RADA)4GGFHRRIKA-CONH2 (Ac-RADARADARADARADAGGFHRRIKA-NH2) [FHR = 1% solution; FHR-2P = 2% solution]
[1]
  charge: positively charged
  pI: 11.32,
[1]; around pH 7
  charge of the molecule around pH 7 range: > 3
[1]; when pH<10
  net charge of the peptide molecule: ≥ 2
[2]
  Capillary like morphology: +
  Cell attachment: ++ (++: 20-50%)
[3]
  pH at which the viscous peptide solution becomes gel: 5.7
[5]
  bFGF (growth factor) retention rate: high in the order of KFQ-2P, FHR-2P, RAD-2P then DGR-2P
